Measured values from paper PMC6391921.

Assays:
Assay in all cases: BLI
[1] = molecular target: H7ssF_B, H7 stabilized HA stem ferritin nanoparticle, design B (influenza A virus A/Shanghai/2/2013 (H7N9) | not stated) (UniProt Q9ZLI1)
[2] = molecular target: H7ssF_C, H7 stabilized HA stem ferritin nanoparticle, design C (influenza A virus A/Shanghai/2/2013 (H7N9) | not stated) (UniProt Q9ZLI1)
[3] = molecular target: H7ssF_D, H7 stabilized HA stem ferritin nanoparticle, design D (influenza A virus A/Shanghai/2/2013 (H7N9) | not stated) (UniProt Q9ZLI1)
[4] = molecular target: H7ssF_E, H7 stabilized HA stem ferritin nanoparticle, design E (influenza A virus A/Shanghai/2/2013 (H7N9) | not stated) (UniProt Q9ZLI1)
[5] = molecular target: H7ssF_F, H7 stabilized HA stem ferritin nanoparticle, design F (influenza A virus A/Shanghai/2/2013 (H7N9) | not stated) (UniProt Q9ZLI1)
[6] = molecular target: H7ssF_I, H7 stabilized HA stem ferritin nanoparticle, design I (influenza A virus A/Shanghai/2/2013 (H7N9) | not stated) (UniProt Q9ZLI1)
[7] = molecular target: H7ssF_J, H7 stabilized HA stem ferritin nanoparticle, design J (influenza A virus A/Shanghai/2/2013 (H7N9) | not stated) (UniProt Q9ZLI1)

Which results are given for CT149 Fab?
Kd [1]: 7 nM; koff [1]: 0.003 s⁻¹; kon [1]: 420000 M⁻¹ s⁻¹; Kd [2]: 0.9 nM; koff [2]: 0.00053 s⁻¹; kon [2]: 600000 M⁻¹ s⁻¹; Kd [3]: 9 nM; koff [3]: 0.0033 s⁻¹; kon [3]: 370000 M⁻¹ s⁻¹; Kd [4]: 8.2 nM; koff [4]: 0.003 s⁻¹; kon [4]: 370000 M⁻¹ s⁻¹; Kd [5]: 2.7 nM; koff [5]: 0.0018 s⁻¹; kon [5]: 670000 M⁻¹ s⁻¹; Kd [6]: 7.2 nM; koff [6]: 0.0029 s⁻¹; kon [6]: 410000 M⁻¹ s⁻¹; Kd [7]: 9.8 nM; koff [7]: 0.0034 s⁻¹; kon [7]: 350000 M⁻¹ s⁻¹
